In paper PMC6642547, “HERA-GITRL activates T cells and promotes anti-tumor efficacy independent of FcγR-binding functionality” (Journal for Immunotherapy of Cancer, 2019):

Target: T1, HERA-GITRL (hexavalent TNF receptor agonist); single-chain GITRL-receptor-binding-domain fused to a silenced … (human, UniProt Q9UNG2 56-177; Q9UNG2 56-177; Q9UNG2 56-177)
T1 construct: glycine-serine based linker, 8 amino acids in length; GITRL (TNFSF18), human, second copy of E56-S177; GITRL (TNFSF18), human, third copy of E56-S177; also called hexavalent HERA-GITRL; scGITRL-RBD-Fc; not shown: Strep-Tag II, C-terminal, kept
Assay: not stated; binding to and dissociation from the GITR-Fc receptors measured in real time, equilibrium binding constants (KD) calculated; instrument and who was immobilised not told in what was shown
Details: both partners purified

T1 sequence (Q9UNG2 whole entry, the tested form may be a part, one chain of several): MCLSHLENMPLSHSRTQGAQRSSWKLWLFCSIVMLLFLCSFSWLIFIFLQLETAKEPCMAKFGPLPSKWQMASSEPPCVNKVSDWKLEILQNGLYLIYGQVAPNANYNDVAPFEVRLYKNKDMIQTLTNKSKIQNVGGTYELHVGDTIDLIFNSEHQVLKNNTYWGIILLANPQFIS

B1: cynomolgus monkey GITR-Fc (Fc fusion)
chain: QRPTGGPGCGPGRLLLGTGKDARCCRIHPTRCCGDYQGEECCSEWDCVCVQPEFHCGNPCCTTCQHHPCPSGQGVQPQGKFSFGFRCVDCALGTFSRGHDGHCKPWTDCTQFGFLTVFPGNKTHNAVCVPGSPPAEPPG
Binder B1 has a Kd of 0.602 nM.
